Results reported in paper PMC2629542.

target: Dr hemagglutinin (DraE) adhesin, Dr fimbriae (E. coli); assay: SPR

For N-domain of CEA (domain or fragment), the Kd was 13.1 µM.

target: Dr hemagglutinin (DraE) adhesin, Dr fimbriae (E. coli); assay: SPR; remark: another data set of the same source

N-CEA S32N (domain or fragment) and N-domain of CEA (domain or fragment) are within 1.5-fold of each other in Kd: 12.8 µM for the first, 13.1 µM for the second.

Compared with N-CEA F29R (domain or fragment), N-CEA D40A (domain or fragment) is lower in Kd: greater than 200 µM for the first, 48.9 µM for the second.

Compared with N-CEA Q44R (domain or fragment), N-CEA G51D (domain or fragment) is lower in Kd: greater than 200 µM for the first, 12 µM for the second. The second binds more tightly here.

Compared with “CEA-CEACAM8 chimera (from UniProt P06731 35-92) (domain or fragment)”, N-CEA L28P (domain or fragment) is 2.2-fold lower in Kd: 14.4 µM for the first, 6.6 µM for the second. The second binds more tightly here.

Going from “N-domain of CEACAM1 (domain or fragment)” to N-CEA V39A (domain or fragment), the Kd falls from 15.3 µM to 9.35 µM (1.6-fold). The second binds more tightly here.

Compared with N-CEA V11A (domain or fragment), N-CEA T52N (domain or fragment) is 2.3-fold lower in Kd: 24.9 µM for the first, 11 µM for the second. The second binds more tightly here.

Work on N-CEA F9A (domain or fragment) yielded a Kd of 18.4 µM.
